This is an account of results in article PMC3400628 (PLoS ONE, 2012).

The assay deals with T1, Flag-NOD2 (human, UniProt Q9HC29 1-1040).
T1 construct: NOD2, human; The deletion constructs count up to aa 1040, the length of whole NOD2; also called NOD2 WT; Flag-NOD2 WT; source: HEK293T, transfected, in lysate; not shown: Flag, N-terminal, kept
As to conditions: partners not purified.

B1: myc-TRIM27 WT (natural protein, human, UniProt P14373 1-513, looked up)
chain: MASGSVAECLQQETTCPVCLQYFAEPMMLDCGHNICCACLARCWGTAETNVSCPQCRETFPQRHMRPNRHLANVTQLVKQLRTERPSGPGGEMGVCEKHREPLKLYCEEDQMPICVVCDRSREHRGHSVLPLEEAVEGFKEQIQNQLDHLKRVKDLKKRRRAQGEQARAELLSLTQMEREKIVWEFEQLYHSLKEHEYRLLARLEELDLAIYNSINGAITQFSCNISHLSSLIAQLEEKQQQPTRELLQDIGDTLSRAERIRIPEPWITPPDLQEKIHIFAQKCLFLTESLKQFTEKMQSDMEKIQELREAQLYSVDVTLDPDTAYPSLILSDNLRQVRYSYLQQDLPDNPERFNLFPCVLGSPCFIAGRHYWEVEVGDKAKWTIGVCEDSVCRKGGVTSAPQNGFWAVSLWYGKEYWALTSPMTALPLRTPLQRVGIFLDYDAGEVSFYNVTERCHTFTFSHATFCGPVRPYFSLSYSGGKSAAPLIICPMSGIDGFSGHVGNHGHSMETSP
notes: TRIM27, human, full length (aa 1-513 by the deletion constructs); cDNA from ImaGenes; also called RFP; source: HEK293T, transfected, in lysate; not shown: 3xmyc, N-terminal, kept
As for B1, the “fold change of TRIM27 co-precipitated with NOD2 at 3 h after 10 µM MDP against untreated controls” value was > 2 fold.
